Measurements published in patent US20240409624A1.

Legend:
[1] = target: 0N4 R tau K298 mutated to alanine (human) (UniProt P10636); assay: flow cytometry on fixed, permeabilised Expi293 cells expressing the mutant, 10 µg/ml VR7082
[2] = target: 0N4 R tau V300 mutated to alanine (human) (UniProt P10636); assay: as above
Sequence of 0N4 R tau V300 mutated to alanine (human) (P10636 other isoform, or with tags, fused parts or gaps, change not shown): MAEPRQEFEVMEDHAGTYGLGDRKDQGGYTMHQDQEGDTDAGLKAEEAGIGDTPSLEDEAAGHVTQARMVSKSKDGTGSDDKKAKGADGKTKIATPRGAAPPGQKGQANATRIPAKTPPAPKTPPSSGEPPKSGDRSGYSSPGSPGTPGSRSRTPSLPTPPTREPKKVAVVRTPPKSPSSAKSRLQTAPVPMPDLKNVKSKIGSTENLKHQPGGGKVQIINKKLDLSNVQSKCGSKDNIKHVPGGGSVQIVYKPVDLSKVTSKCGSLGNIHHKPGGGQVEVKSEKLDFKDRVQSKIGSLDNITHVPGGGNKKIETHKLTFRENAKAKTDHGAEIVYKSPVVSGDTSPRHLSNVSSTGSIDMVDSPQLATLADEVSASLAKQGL

Sequence of 0N4 R tau K298 mutated to alanine (human) (P10636 other isoform, or with tags, fused parts or gaps, change not shown): as above

- decrease of binding relative to 0N4 R tau [1]: 50%
- decrease of binding relative to 0N4 R tau [2]: 50%
B1: VR7082 rabbit IgG (antibody, V domains shown)
VH: QSVEESGGRLVTPGTPLTLTCTVSGIDLSNYAMIWVRQAPGEGLEYIGIISSTGNTFYATWAKGRFTISKTSTTVDLKITSPTAEDTATYFCARDTNSDSHYGWEAFNIWGPGTLVTVSS
VL: AVVLTQTPASVEAAVGGTVSINCQASEDIESYLAWYQQKPGQRPKLLIYRASTLASGVSSRFKGSGSGTEYTLTISGVECADAATYYCQEGYSIHVDNVFGGGTEVVVK
